Measurements published in patent CN114958811A.

Molecular target: RBD-His (近岸生物 货号 DRA42) (SARS-CoV-2) (UniProt P0DTC2)

**Q.** With “hACE2-Fc融合蛋白 (fusion of the human ACE2 extracellular domain with the Fc fragment of human IgG1) (Fc fusion)” as the substance, how does the 亲和力 read?
**A.** 0.54 nM
